Assay [1] addresses T1, fibroblast growth factor 19 (FGF19), full-length (human, UniProt O95750, biotin (where co-transfected with BirA biotin-protein ligase)). As to the kind of experiment: SPR.
For assay [2], the target named is T1, fibroblast growth factor 19 (FGF19), …. Briefly: ELISA. For orientation: In an ELISA, binding on a coated surface is turned into a signal by an enzyme label.

T1 sequence (O95750 25-216): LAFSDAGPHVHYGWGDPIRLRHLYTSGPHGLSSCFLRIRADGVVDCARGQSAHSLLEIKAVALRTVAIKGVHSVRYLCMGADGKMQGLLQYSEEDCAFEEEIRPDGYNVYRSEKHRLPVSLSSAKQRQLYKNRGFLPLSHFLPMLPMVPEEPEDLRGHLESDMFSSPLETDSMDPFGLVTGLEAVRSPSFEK

B1: 31A3, human IgG1 Ab (antibody, V domains shown)
VH: not shown
VL: QAGLTQPASVSGSPGQSITISCTGTSSDVGGYNYVSWYQQHPGKAPKLMIYDVSNRPSGVSDRFSGSKSGNTASLTISGLQTEDEADYYCSSYTRSSTLVFGGGTQLTVL
With B1, the binding result in assay [1] is given as “binds”.

B2: G1A8, human IgG1 Ab (antibody, V domains shown)
VH: not shown
VL: QAGLTQPASVSGSPGQSITISCTGTSSDVGGYNYVSWYQQHPGKAPKLMIYDVSNRPSGVSDRFSGSKSGNTASLTISGLQTEDEADYYCSSWTRSSGLVFGGGTQLTVL
With B2, in assay [1], the “fold increase of affinity over 31A3” value amounted to 27 fold and the “fold slower dissociation rate than 31A3” value was 60 fold.

B3: G1A8-Fab (Fab, V domains shown)
VH: not shown
VL: QAGLTQPASVSGSPGQSITISCTGTSSDVGGYNYVSWYQQHPGKAPKLMIYDVSNRPSGVSDRFSGSKSGNTASLTISGLQTEDEADYYCSSWTRSSGLVFGGGTQLTVL
Molecule B3 returned an IC50 in assay [2] of 1.39 nM.

What is called IC50 is the point on the concentration scale where inhibition reaches its midpoint. Low readings indicate greater potency, high ones weaker potency.
